Measured values taken from PMC4014126 (2014).

B1: Myc-tagged mouse IL-17RA [mouse] / NF-κB activator 1 (Act1) [mouse (endogenous in MEFs)] (parent complex)
chain 1: SPRLLDFPAPVCAQEGLSCRVKNSTCLDDSWIHPKNLTPSSPKNIYINLSVSSTQHGELVPVLHVEWTLQTDASILYLEGAELSVLQLNTNERLCVKFQFLSMLQHHRKRWRFSFSHFVVDPGQEYEVTVHHLPKPIPDGDPNHKSKIIFVPDCEDSKMKMTTSCVSSGSLWDPNITVETLDTQHLRVDFTLWNESTPYQVLLESFSDSENHSCFDVVKQIFAPRQEEFHQRANVTFTLSKFHWCCHHHVQVQPFFSSCLNDCLRHAVTVPCPVISNTTVPKPVADYIPLWVYGLITLIAILLVGSVIVLIICMTWRLSGADQEKHGDDSKINGILPVADLTPPPLRPRKVWIVYSADHPLYVEVVLKFAQFLITACGTEVALDLLEEQVISEVGVMTWVSRQKQEMVESNSKIIILCSRGTQAKWKAILGWAEPAVQLRCDHWKPAGDLFTAAMNMILPDFKRPACFGTYVVCYFSGICSERDVPDLFNITSRYPLMDRFEEVYFRIQDLEMFEPGRMHHVRELTGDNYLQSPSGRQLKEAVLRFQEWQTQCPDWFERENLCLADGQDLPSLDEEVFEDPLLPPGGGIVKQQPLVRELPSDGCLVVDVCVSEEESRMAKLDPQLWPQRELVAHTLQSMVLPAEQVPAAHVVEPLHLPDGSGAAAQLPMTEDSEACPLLGVQRNSILCLPVDSDDLPLCSTPMMSPDHLQGDAREQLESLMLSVLQQSLSGQPLESWPRPEVVLEGCTPSEEEQRQSVQSDQGYISRSSPQPPEWLTEEEELELGEPVESLSPEELRSLRKLQRQLFFWELEKNPGWNSLEPRRPTPEEQNPS
chain 2: MNRSIPVEVDESEPFPSQLLKPIPEYSPEEELEPPAPNTRNMAPSSLSVLQCPPLKLANHQPVSQQVTCLRAKVLEEGEASFFRRHPELGKDISSCSSGASEPESELGALPPEHRFTLTEKRNRWLGSQLSAASPDTGHESDKSDPSLPNALADSFSGGQEMMPRPRPRPGPHRHRAAPDVPTIDTGYDSQPQDVLGIRQLERPLPLTSSCYLQDLPGPLRSRELPPQFELERYPMNAQLLPPHPSPQAPWNCQYYCPGGPYHHQVPHGHGYPPAAAYQQVLQPALPGQVLPGARARGPRPVQKVILNDSSPQDQEERPAQRDFSFPRLPRDQLYRPPSNGVEAPEESLDLPAELRPHGPQAPSLAAVPRPPSNPLARGTLRTSNLPEELRKVFITYSMDTAMEVVKFVNFLLVNGFQTAIDIFEDRIRGIDIIKWMERYLRDKTVMIIVAISPKYKQDVEGAESQLDEDEHGLHTKYIHRMMQIEFISQGSMNFRFIPVLFPNAKKEHVPTWLQNTHVYSWPKNKKNILLRLLREEEYVAPPRGPLPTLQVVPL

Variants of: B1
Test: co-immunoprecipitation (anti-Myc IP, Western blot, ImageJ densitometry); IL-17RA-deficient MEFs reconstituted by retroviral infection; treated with IL-17 for 10 min; parent: 100

| Variant | percent of parent |
| --- | --- |
| chain 1 I429A, chain 1 L430A | 102 |
| chain 1 E388A, chain 1 Q389A, chain 1 E393A | 107 |

Second part, the variant after the results:

| percent of parent | Variant |
| --- | --- |
| 98 | chain 1 V396A, chain 1 M397A |
| 107 | chain 1 R420A, chain 1 Q423A, chain 1 K427A |
